Usually stoichiometry N stands for a count of units in the complex or per binding partner.

In this assay the target is AcHNL, hydroxynitrile lyase from Acidobacterium capsulatum ATCC 51196 (Acidobacterium capsulatum ATCC 51196). The assay is described as follows: SEC.

Consider “AcHNL, hydroxynitrile lyase from Acidobacterium capsulatum ATCC 51196 (enzyme)”, for which the stoichiometry N is 4.

These data come from article PMC4151996.
